Laboratory results: the supplement of paper PMC7125110
± gives the standard error. Fewer inactive variants are shown than the library holds.

B1: glmS ribozyme (parent)
chain: AUAAAAGCGCCAGAACUACAGAAAUGUAGUUGACGAGGAGGAGGUUUAUCGAAUUUUCGGCGGAUGCCUCCAAA

Variants of: B1
Assay: self-cleavage kobs at 640 uM GlcN6P; higher = faster cleavage; RNA array
Conditions: with glucosamine-6-phosphate
Summary of the method: (§1)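 Sequenced MiSeq chips were the platform: E. coli RNA polymerase transcribed barcoded ribozyme variants on them in situ, and a hybridised Cy3 probe tracked these at 37 °C. After glucosamine-6-phosphate (40 μM to 10 mM) in HEPES/KCl/Mg(OAc)2 buffer was flowed in, tiles were imaged over ~14 h. Signals normalised to baseline and to non-cleaving reference variants were reduced to per-tile medians and fit to one- or two-exponential decays to obtain kobs. kcat and KM were derived through weighted Michaelis–Menten fits across concentrations.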
In the case of AUAAAAGCGCCAGAACUACAGAAAUGUAGUUGACGAGGAGGAGGUUUAACGAAUCUUCGGCGGAUGCCUCGAAA [U49A U55C C71G], the “self-cleavage kobs at 640 uM GlcN6P” value is reported as less than 1e-05 s⁻¹. In the case of AUAAAAGCGCCAGAACUACAGAAAUGUAGUUGACGAGGAGGAGGUUUAGCGAAUUUUCGGUGGAUGCCUCAAAA [U49G C61U C71A], the “self-cleavage kobs at 640 uM GlcN6P” value is reported as less than 1e-05 s⁻¹. For AUAAAAGCGCCAGAACUACAGAAAUGUAGUUGACGAGGAGGAGUUUUAUCGAAUUUUCGGCUGAUGCAUCCAAA [G44U G62U C68A], the “self-cleavage kobs at 640 uM GlcN6P” value was less than 1e-05 s⁻¹. For AUAAAAGCGCCAGAACUACAGAAAUGUAGUUGACGAGGAGGAGAUUUAUUGAAUUUUCGGCGGAUGUCUCCAAA [G44A C50U C67U], the “self-cleavage kobs at 640 uM GlcN6P” value was less than 1e-05 s⁻¹. AUAAAAGCGCCAGAACUACAGAAAUGUAGUUGACGAGGAGGAGGUUUAUCCCAUUUUCGACGGAUGCCUCCAAA [G51C A52C G60A] was tested, and the “self-cleavage kobs at 640 uM GlcN6P” value was less than 1e-05 s⁻¹. With AUAAAAGCGCCAGAACUACAGAAAUGUAGUUGACGAGGAGGUGGUUUAUCGAAUUUUCGGCGGAUGCCUAGAAA [A42U C70A C71G] the “self-cleavage kobs at 640 uM GlcN6P” value was less than 1e-05 s⁻¹. With AUAAAAGCGCCAGAACUACAGAAAUGUAGUUGACGAGGAGGAGGCUUUUCGAAUUUUCGACGGAUGCCUCCAAA [U45C A48U G60A] the “self-cleavage kobs at 640 uM GlcN6P” value was less than 1e-05 s⁻¹. In the case of AUAAAAGCGCCAGAACUACAGAAAUGUAGUUGACGAGGAGGUGGUUUAUCUCAUUUUCGGCGGAUGCCUGCAAA [A42U G51U A52C C70G], the “self-cleavage kobs at 640 uM GlcN6P” value is reported as less than 1e-05 s⁻¹. In the case of AUAAAAGCGCCAGAACUACAGAAAUGUAGUUGACGAGGAGGAGGUUUACCGAAUAUUCGGCGGAUGCCUCCAAA [U49C U55A], the “self-cleavage kobs at 640 uM GlcN6P” value is reported as less than 1e-05 s⁻¹. In the case of AUAAAAGCGCCAGAACUACAGAAAUGUAGUUGACGAGGAGGUGGUGUCUCGAAUUUUCGGCGGAUGCCUCCAAA [A42U U46G A48C], the “self-cleavage kobs at 640 uM GlcN6P” value is reported as less than 1e-05 s⁻¹. For AUAAAAGCGCCAGAACUACAGAAAUGUAGUUGACGAGGAGGAGGUUUAUCUAAUUUUCGGCUGAUGCCUUCAAA [G51U G62U C70U], the “self-cleavage kobs at 640 uM GlcN6P” value was less than 1e-05 s⁻¹. For AUAAAAGCGCCAGAACUACAGAAAUGUAGUUGACGAGGAGGAGGUGUAUCGAUUUUUCGGCGCAUGGCUCCAAA [U46G A53U G63C C67G], the “self-cleavage kobs at 640 uM GlcN6P” value was less than 1e-05 s⁻¹. For AUAAAAGCGCCAGAACUACAGAAAUGUAGUUGACGAGGAGGUGGUUUAUCCAAUUUUCUGCGGAUGCCUCCAAA [A42U G51C G59U], the “self-cleavage kobs at 640 uM GlcN6P” value was less than 1e-05 s⁻¹. In the case of AUAAAAGCGCCAGAACUACAGAAAUGUAGUUGACGAGGAGGAGGUUGGUCGAAUUUUCGGCGAAUGCCUCCAAA [U47G A48G G63A], the “self-cleavage kobs at 640 uM GlcN6P” value is reported as less than 1e-05 s⁻¹. With AUAAAAGCGCCAGAACUACAGAAAUGUAGUUGACGAGGAGGAGGUUUAUCGCAUUUUCGGCGGAUGUCUCGAAA [A52C C67U C71G] the “self-cleavage kobs at 640 uM GlcN6P” value was 5.68e-05 ± 2.4e-05 s⁻¹. In the case of AUAAAAGCGCCAGAACUACAGAAAUGUAGUUGACGAGGAGGAGGGUUAUCGAGUUUUCGGCAGAUGCCUCCAAA [U45G A53G G62A], the “self-cleavage kobs at 640 uM GlcN6P” value is reported as less than 1e-05 s⁻¹. For AUAAAAGCGCCAGAACUACAGAAAUGUAGUUGACGAGGAGGAGGGUUAUCGAAUUCUCGGCGGAUGCCUCCAAA [U45G U56C], the “self-cleavage kobs at 640 uM GlcN6P” value was 0.000204 ± 4.5e-05 s⁻¹. For AUAAAAGCGCCAGAACUACAGAAAUGUAGUUGACGAGGAGGAGGUUAAUCGAAGUUUCGGCGGAUGCGUCCAAA [U47A U54G C68G], the “self-cleavage kobs at 640 uM GlcN6P” value was 6.48e-05 ± 1.2e-05 s⁻¹. In the case of AUAAAAGCGCCAGAACUACAGAAAUGUAGUUGACGAGGAGGAGGCUGAUCUAAUUUUCGGCGGAUGCCUCCAAA [U45C U47G G51U], the “self-cleavage kobs at 640 uM GlcN6P” value is reported as less than 1e-05 s⁻¹. For AUAAAAGCGCCAGAACUACAGAAAUGUAGUUGACGAGGAGGAGGUUCAUCGAAGUUUCGACGGAUGCCUCCAAA [U47C U54G G60A], the “self-cleavage kobs at 640 uM GlcN6P” value was less than 1e-05 s⁻¹. AUAAAAGCGCCAGAACUACAGAAAUGUAGUUGACGAGGAGGAGAUUUAUCGAAUUUUCGGCGGACGCCUCCAAA [G44A U65C] was tested, and the “self-cleavage kobs at 640 uM GlcN6P” value was less than 1e-05 s⁻¹. AUAAAAGCGCCAGAACUACAGAAAUGUAGUUGACGAGGAGGAGUUUCCUCGAAUUUUCGGCGGAUGCCGCCAAA [G44U U47C A48C U69G] was tested, and the “self-cleavage kobs at 640 uM GlcN6P” value was less than 1e-05 s⁻¹. For AUAAAAGCGCCAGAACUACAGAAAUGUAGUUGACGAGGAGGAGAUUUAUCGAAUUUUCGGAGGAUGCCUCUAAA [G44A C61A C71U], the “self-cleavage kobs at 640 uM GlcN6P” value was less than 1e-05 s⁻¹. AUAAAAGCGCCAGAACUACAGAAAUGUAGUUGACGAGGAGGAAAUUUAUCGAAUUUUCGGCGGAUGCUUCCAAA [G43A G44A C68U] was tested, and the “self-cleavage kobs at 640 uM GlcN6P” value was 0.000159 ± 6.2e-05 s⁻¹. AUAAAAGCGCCAGAACUACAGAAAUGUAGUUGACGAGGAGGAGGUUUAUAGAAUUUUCGGGGGAUGCUUCCAAA [C50A C61G C68U] was tested, and the “self-cleavage kobs at 640 uM GlcN6P” value was 8.62e-05 ± 2.5e-05 s⁻¹.

Variants of: B1
Assay: self-cleavage kobs at 2500 uM GlcN6P; higher = faster cleavage; RNA array
Conditions: with glucosamine-6-phosphate
Summary of the method: as §1
In the case of AUAAAAGCGCCAGAACUACAGAAAUGUAGUUGACGAGGAGGAGGUUUAGCGAAUUUUCGGUGGAUGCCUCAAAA [U49G C61U C71A], the “self-cleavage kobs at 2500 uM GlcN6P” value is reported as less than 1e-05 s⁻¹. For AUAAAAGCGCCAGAACUACAGAAAUGUAGUUGACGAGGAGGAGUUUUAUCGAAUUUUCGGCUGAUGCAUCCAAA [G44U G62U C68A], the “self-cleavage kobs at 2500 uM GlcN6P” value was less than 1e-05 s⁻¹. In the case of AUAAAAGCGCCAGAACUACAGAAAUGUAGUUGACGAGGAGGAGGCUUUUCGAAUUUUCGACGGAUGCCUCCAAA [U45C A48U G60A], the “self-cleavage kobs at 2500 uM GlcN6P” value is reported as less than 1e-05 s⁻¹. For AUAAAAGCGCCAGAACUACAGAAAUGUAGUUGACGAGGAGGAGGUUUACCGAAUAUUCGGCGGAUGCCUCCAAA [U49C U55A], the “self-cleavage kobs at 2500 uM GlcN6P” value was less than 1e-05 s⁻¹. In the case of AUAAAAGCGCCAGAACUACAGAAAUGUAGUUGACGAGGAGGAGGUUUAUCGCAUUUUCGGCGGAUGUCUCGAAA [A52C C67U C71G], the “self-cleavage kobs at 2500 uM GlcN6P” value is reported as 9.24e-05 ± 3.5e-05 s⁻¹. AUAAAAGCGCCAGAACUACAGAAAUGUAGUUGACGAGGAGGAGGGUUAUCGAGUUUUCGGCAGAUGCCUCCAAA [U45G A53G G62A] was tested, and the “self-cleavage kobs at 2500 uM GlcN6P” value was less than 1e-05 s⁻¹. With AUAAAAGCGCCAGAACUACAGAAAUGUAGUUGACGAGGAGGAGGGUUAUCGAAUUCUCGGCGGAUGCCUCCAAA [U45G U56C] the “self-cleavage kobs at 2500 uM GlcN6P” value was 0.000272 ± 7.1e-05 s⁻¹. With AUAAAAGCGCCAGAACUACAGAAAUGUAGUUGACGAGGAGGAGGUUAAUCGAAGUUUCGGCGGAUGCGUCCAAA [U47A U54G C68G] the “self-cleavage kobs at 2500 uM GlcN6P” value was 6.96e-05 ± 1.8e-05 s⁻¹. In the case of AUAAAAGCGCCAGAACUACAGAAAUGUAGUUGACGAGGAGGAGUUUCCUCGAAUUUUCGGCGGAUGCCGCCAAA [G44U U47C A48C U69G], the “self-cleavage kobs at 2500 uM GlcN6P” value is reported as less than 1e-05 s⁻¹. In the case of AUAAAAGCGCCAGAACUACAGAAAUGUAGUUGACGAGGAGGAGAUUUAUCGAAUUUUCGGAGGAUGCCUCUAAA [G44A C61A C71U], the “self-cleavage kobs at 2500 uM GlcN6P” value is reported as less than 1e-05 s⁻¹.

Variants of: B1
Assay: self-cleavage kobs at 10000 uM GlcN6P; higher = faster cleavage; RNA array
Conditions: with glucosamine-6-phosphate
Summary of the method: as §1
With AUAAAAGCGCCAGAACUACAGAAAUGUAGUUGACGAGGAGGAGGUUUAGCGAAUUUUCGGUGGAUGCCUCAAAA [U49G C61U C71A] the “self-cleavage kobs at 10000 uM GlcN6P” value was less than 1e-05 s⁻¹. For AUAAAAGCGCCAGAACUACAGAAAUGUAGUUGACGAGGAGGAGGGUUAUCGAAUUCUCGGCGGAUGCCUCCAAA [U45G U56C], the “self-cleavage kobs at 10000 uM GlcN6P” value was 0.000987 ± 0.00015 s⁻¹.
